Consider one substance from patent US20210388043A1.

The target of the assay is CD47 (human) (UniProt Q08722). Description: cell binding (FACS); PC-3 cells. Particulars: Fc fusion.

SIRPαD1-Fc came in with an EC50 of 0.58 µg/mL.

One may read the EC50 as the concentration that produces a half-maximal response. Low values mean higher potency in that assay, high ones lower potency in that assay.
